# Paper PMC12122859 (Communications Biology, 2025)
# T1: E2 alone (as compared with E1E2) (Hepatitis C virus genotype 1b, strain …)
# T1 chain: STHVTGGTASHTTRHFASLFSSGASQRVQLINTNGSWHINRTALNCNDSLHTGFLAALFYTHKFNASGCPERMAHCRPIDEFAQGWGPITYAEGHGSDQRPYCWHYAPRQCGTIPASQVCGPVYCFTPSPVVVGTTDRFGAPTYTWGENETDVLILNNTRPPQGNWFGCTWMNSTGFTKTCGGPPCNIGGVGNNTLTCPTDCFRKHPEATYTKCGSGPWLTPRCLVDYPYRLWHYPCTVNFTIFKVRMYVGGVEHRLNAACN
# B1: CBH4B (antibody, format not stated, as tested on E1E2 and E2 alone) (antibody, V domains shown)
# VH: QIQLVQSGAEVKKPGSSVKVSCRASGGSFGTYGITWVRQAPGQGLEWVGGIVPLFDRPNYAQKFQDRVAITADESTSTAYMELSSLRFDDTAVYYCAREADIVVGGSSYFDSWGQGTLVTVTK
# VL: ESVLTQSPGTLSLSPGERATLSCRASQSVSSTYVAWYQQKPGQAPRLLIYDASIRATGVPDRFSGGGSGTDFTLTISRLEPEDFAVYYCQQYGGSPFFGGGTKVEIK
# How the values were obtained:
# [1] = biological target: membrane-bound recombinant E1E2 (hepatitis C virus (strain not stated))
# [2] = biological target: soluble recombinant E1E2 (hepatitis C virus (strain not stated))
# [3] = biological target: T1, E2 alone (as compared with E1E2)
binder,measurement,setting,value
B1,Kd,[1],3.1 nM
same,Kd,[2],19 nM
same,Kd,[3],0.08 nM
